Here are results for 41 sequences from the nanobody polyreactivity screen of Harvey et al. (2022).

The data set in a line: yeast display, Sf9 membrane polyspecificity reagent, FACS + sequencing; frameworks hold sequencing errors. An outline of the steps:
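In a synthetic yeast display library (Saccharomyces cerevisiae BJ5465), nanobody expression was induced with galactose for 36–48 hours. FACS gates were set low and high (top ~1%) using anti-HA fluorescence for expression and streptavidin fluorescence for binding of the Sf9 membrane reagent. Each polyreactivity label is drawn from the gate of origin.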
As to “QDQLVESGGGLVQAGGSLRLSCAASGSTFHWYVMGWYRQAPGKERELVAAISQSGGNTYYADSVKGRFTISRDNAKNTVYLQMNSLKPEVTAVFYCAADSVGVFNTTFFQFEYWGQGTQVTVSS”, the “polyreactivity (PSR sort gate)” value is “high polyreactivity”.

With “QDQLVESGGGLVQAGGSLRLSCAASGSTFLINAMGWYRQAPGKERELVAAISDSGGSTHYADSVKGRFTISRDNAKNTVYLEMNSLKPEDTAVYYCAATIPTTLILYGYWGQGTQVTVSS”, the “polyreactivity (PSR sort gate)” value was “low polyreactivity”.

As for “QDQLVESGGGLVQAGGSLRLSCAASGSTFQDYAMGWYRQAPGKERELVAAITYSGGSTYYADSVKGRFTISRDIAKNTVYLQMNSLKPEDTAVYYCAAKDTTVFYYDDDYWGHGTQVTVSS”, the “polyreactivity (PSR sort gate)” value is “low polyreactivity”.

For “QDQLVESGGGLVQAGGSLRLSCAASGSTFRHYAMGWYRQAPGKERELVAVISWGGTSTYYADSVKGRFTISRDNAKNTVYLQMNSLKPEDTAVYYCNKAYFPIFKGYEMYYWGQGTQVTVSS”, the “polyreactivity (PSR sort gate)” value is “low polyreactivity”.

For the sequence “QDQLVESGGGLVQAGGSLRLSCAASGSTFSIYAMGWYRQATGKERELVAAIPYSGGSTYYADSVKGRFTISRDNAKNTVYLQMNSLKPEDTAVYYCAAEVYDSRWWYSGATDDYWGQGTQVTVSS”, the “polyreactivity (PSR sort gate)” value was “high polyreactivity”.

Consider “QDQLVESGGGLVQAGGSLRLSCAASGSTFSYNMGWYRQAPGKERELVARITRGGGSTYYADSVKGRFTISRDNAKNTVYLQMNSLKPEDTAVYYCAADRYFRYYYWGQGTQVTVSS”, for which the “polyreactivity (PSR sort gate)” value is “high polyreactivity”.

Consider “QDQLVESGGGLVQAGGSLRLSCAASGSTFSYYAMGWYRQATGKERELVASISTRGGSTYYADSVKGRFTISRDNAKNTVYLQMNSLKPEDTAVYYCAATIRPRGVARVDYWGQGTQVTVSS”, for which the “polyreactivity (PSR sort gate)” value was “high polyreactivity”.

In the case of “QDQLVESGGGLVQAGGSLRLSCAASGSTFTRNSMGRYRQAPWKERELVAVISSRGGRTYYADSVKGRFTISRDNAKNSVYLPMNSLKPDDTAVYYCAARYVIPLGNTYDYWGQGTQVNVSS”, the “polyreactivity (PSR sort gate)” value is “high polyreactivity”.

Consider “QDQLVESGGGLVQAGGSLRLSCAASGSTFTSNAMGWYRQAPGKERELVAAISFSDASTYYADSVKGRFTISRDNAKKTVYLQMNSLKPEDTAVYYCNADYPTTAYDYCGQGTQVTVSS”, for which the “polyreactivity (PSR sort gate)” value is listed as “low polyreactivity”.

In the case of “QDQLVESGGGLVQAGGSLRLSCAASGSTFYRYAMGRSRQAPGTERELVAAISWRGGSTYYADSVKGRFTISRDNAKNSVYLQMNSLKPEDTAVYYCNADWYPYDQMYYWGQGTQVTVSS”, the “polyreactivity (PSR sort gate)” value is given as “low polyreactivity”.

On to “QDQLVESGGGLVQAGGSLRLSCAASGSTIFVYTMGWYRQAPGKERELVAAISGSGGSTSYADSVKGRFTISRDNAKNTVYLQMNSLKPEDTAVYYCAARRHVYLRGSTFEFYYWGQGTQVTVSS”, for which the “polyreactivity (PSR sort gate)” value is listed as “high polyreactivity”.

With “QDQLVESGGGLVQAGGSLRLSCAASGSTLVKYAMGWYRQAPGKERELVARITLNGGRTYYADSVKGRFTISRDNAKNTVYLQMNSLKPVDTAVYYCAKSLPHSTSRDYWGQGTQVTLSS”, the “polyreactivity (PSR sort gate)” value is reported as “low polyreactivity”.

With “QDQLVESGGGLVQAGGSLRLSCAASGSTLYMYAMGWYRQAPGKERELVAAISWSDDTTYYADSVKGRFTISRDNAKNTVYLQMNSLKPEDTAVYYCNAETYYGNSFGPFSYDYWGQGTQVTVSS”, the “polyreactivity (PSR sort gate)” value is “low polyreactivity”.

Take “QDQLVESGGGLVQAGGSLRLSCAASGSTSYRYSMGWYRQAPGKEREFVAAISWSGGSTYYADSVKGRFTISRDTAKNTVYLQMNSLKPEDTAVYYCAAVSRRGSARFDYWGQGTQVTVSS”: the “polyreactivity (PSR sort gate)” value is “high polyreactivity”.

In the case of “QDQLVESGGGLVQAGGSLRLSCAASGTIFDVYAMGWYIQAPGKERELVAAISYGGGSTYYADSVKGRFTISRDNAKNTVYLQINSLKPEDTAVYYCAADDDVYGLEYGYWGQGTQVTVSS”, the “polyreactivity (PSR sort gate)” value was “low polyreactivity”.

With “QDQLVESGGGLVQAGGSLRLSCAASVIIFEYYTMGWYRQAPGKERELVASITYDGDSTYYADSVKRRFTISRDNAKKTVYLQMNSQTPEDTAFYSCAADYYYVYSSYGHYYWGQGTQVTVSS”, the “polyreactivity (PSR sort gate)” value is reported as “low polyreactivity”.

As to “QDQLVESGGGLVQAGGSLRLSCADSGRIFCINAMGWYRQAPGKERELVAAINWSGGSTYYADSVKGRFTISRDNAKNTVYLQMNSLKPEDTAVYYCAAQKYKRVGYWGQGTQVTVSS”, the “polyreactivity (PSR sort gate)” value is given as “high polyreactivity”.

Regarding “QDQLVESGGGLVQAGGSLRLSCASSGITIATNAMGWSRQAPGKERELVAAISWSGGSTYYADSVKGRFTISRDNAKNTVFLQMNSLKPEDTAVYYCATGYSVWYDYWGQGTQVTVSS”, the “polyreactivity (PSR sort gate)” value is recorded as “low polyreactivity”.

“QDQLVESGGGLVQAGGSLRLSCASSGSTFVRYAMGWYRQAPGKERELVATISKSGGSTSYADSVKGRFTISRDNAKNTVYLQMNSLKPEDTAVYYCAADFLYIWAIFDYWGQGTQVTVSS”: the “polyreactivity (PSR sort gate)” value was “low polyreactivity”.

In the case of “QDQLVESGGGLVQAGGSLRLSCDASGRIFWVYVMGWYRQAPGKERELVADITSIGGSTYYADSVKGRFTISRDNAKNTVYLQMNSLKPEDTAVYSCAADVDGYPYYQYKMGYWGQGTQVTVSS”, the “polyreactivity (PSR sort gate)” value is given as “low polyreactivity”.

In the case of “QDQLVESGGGLVQAGGSLRLSCSASGRIFTRNTMGWYRQAPGKERELVAAITSRGGSTYYADSVKGRFTISRDNAKNTVYLQMNSLKPEDTAVYDCAADKPRSYYYWGQGTQVTVSS”, the “polyreactivity (PSR sort gate)” value was “high polyreactivity”.

With “QDQLVESGGGLVQAGGSLRLSCSASGRTFHRNAMGWYRQAPGKERESVAAITGDGRTNYADSVKGRFTISRDNAKNTVYLQMNSLKPEDNAVYYCAARFSYRSYDYWGQGTQVTVSS”, the “polyreactivity (PSR sort gate)” value is recorded as “low polyreactivity”.

Turning to “QDQLVESGGGLVQAGGSLRLSSAASGLTLHGNAMGWYRHAPGKERELVATITSSGGSTFYADSVKGRFTLSRDNAKNTVYLKMNSMKPEDTAVYYCNADAPYSVDYYVRFDYWGQGTQVTVSS”, the “polyreactivity (PSR sort gate)” value is listed as “low polyreactivity”.

In the case of “QDQLVESGGGLVQAGGSLRLSSAASGSIFRGYAMGWYRQAPGKERELVAAITFSGGSTYADSVKGRFTISRDNAKITVYLQMNSLKPEDTAVYYCAAKRTGHNWFTVYPYYSWGQGTQVTVSS”, the “polyreactivity (PSR sort gate)” value is on record as “low polyreactivity”.

On to “QDQLVESGGGLVQAGGSLRLTCAASGSIFRYYVMGWYRQAPGKERELVAGISSSGGRTYYADSVKGRFTISRDNANNTVYLQMNSLKPEDTAVYYCNAVTSRRPYDYWGHGTQVTVSS”, for which the “polyreactivity (PSR sort gate)” value was “high polyreactivity”.

“QDQLVESGGGLVQAGGSLRLTCAASGSIFSANVMGWYRQAPGKERELVAAIRRGGTTYYADSVKGRFTISRDNSKNTVYLQMNRLNPEDSAVYYCATDGIFGSYLRFEVAYDYWGQGTQVTVSS”: the “polyreactivity (PSR sort gate)” value is recorded as “low polyreactivity”.

In the case of “QDQLVESGGGLVQAGGSLRLTCAASGSIIVRYAMGWYRQAPGKERELVASISKRGGSTYYADSVKGRFTISRDNAKNTVYLQMNSLKPEDTAVYYCAAVGYYLVKFDYWGQGTQVTVSS”, the “polyreactivity (PSR sort gate)” value is reported as “high polyreactivity”.

Regarding “QDQLVESGGGLVQAGGSLSLSCAASGSIFETYDMGWYRQAPGKERELVAAISLSGGSTYYADSVKGRFTISRDNAKNTVYLQMYSLKPEDTAVYYCASDTYYVSYGYYYWGLGTQVTVSS”, the “polyreactivity (PSR sort gate)” value is recorded as “low polyreactivity”.

As for “QDQLVESGGGLVQAGRSLRLSCAASGRTFRTYTMGWYRQAPGKERELVAAISRGGSTNYADSVKGRFTISRDNEKNTVYLQMNSLKPEDTAVYYCNAKASFCSPYDYWGQGTQVTVSS”, the “polyreactivity (PSR sort gate)” value is “high polyreactivity”.

“QDQLVESGGGLVQAGVSLRLICAASGRTFYLYAIGWYRQAPGKERELVAAITWGGATTYYADSVKGRFTISRDNAKNTVYLQMNSLKPEVTAVYYCAAGGYTVWHYQYYAMDYCGQGTQVTVSS”: the “polyreactivity (PSR sort gate)” value is reported as “low polyreactivity”.

Consider “QDQLVESGGGLVQAVGSLRLSCAASGFTFYRNAMGWYRQAPGKERELVAAITWSGTSTYFADSVKGRFTISRDNAQNTVYLQLNSLKPEDTAVYYCNARGFQKSDPRGYLILNYWGQGTQVTVSS”, for which the “polyreactivity (PSR sort gate)” value is on record as “high polyreactivity”.

For the sequence “QDQLVESGGGLVQAVGSLRLSCAASGSTFGLYAMGWYRQAPGKERELVAAITIRGGSTYYADSVKGRFTISRDNAKKTVYLQMNSLKPEDTAVYYCAADYWYGCFEYWGQGTQVTVSS”, the “polyreactivity (PSR sort gate)” value is listed as “low polyreactivity”.

In the case of “QDQLVESGGGLVQEGGSLRLICAASGRTLQSYAMGGYRQAPGKERELVAAISGGASTYADSVKGRFTISRDNAKNTVYLQMNSLKPEDTAVYYCAADDDPVPTYEYDYWGQGTQVTVSS”, the “polyreactivity (PSR sort gate)” value is given as “low polyreactivity”.

As to “QDQLVESGGGLVQEGGSLRLSCAASGSTFPYNAMGWYRQAPGKERELVAAITRRAGRTYYADSVKGRFTISRDNAKNTVYLQLNSLKTEDTAVYYCAKSYQRGVYHYVYWGQVTQVTVSS”, the “polyreactivity (PSR sort gate)” value is “high polyreactivity”.

For the sequence “QDQLVESGGGLVQEGGSLRLSCAAYGTIFQIYAMGWYIQAPGKERELVAAINSGGISKYADSVKGRFTISRDNAKNSVYLQMNSLTPADTAVYYCAASVDTGRYSVYYHGYTYDYWGQGTQVTVSS”, the “polyreactivity (PSR sort gate)” value was “low polyreactivity”.

As to “QDQLVESGGGLVQWGRSLGIRCAASGRIFNVKAMGWYRQAPGNEREFDAAISGSVGSTYYADSVKGRFTISRDNAKYSVYLQHNSLKRLDTAVYYCAARYGYDRNRRPGYVYWGQGTQVTVSS”, the “polyreactivity (PSR sort gate)” value is listed as “low polyreactivity”.

With “QDQLVESGGGVVQAGGSLRLSCAASGSIFAYNAMGWYRQAPGKERELVAAITDSGGSTFYADSVKGRFTISRDNAKNTVYLQMNSLKPEDTAVYYCATSGDRLVWGQGTQVTVSS”, the “polyreactivity (PSR sort gate)” value is “low polyreactivity”.

For “QDQLVESGRGIFKAGGSLRLSCAASGSIFGDNAMGWSRHAPGKDRELVAAISSGGPTYADSVKGRFTISRDNAKNTVYLQMNSLKAEDSAVYFCNATDGINPYDLTDFEFDYWGQGTEVTVSS”, the “polyreactivity (PSR sort gate)” value is recorded as “low polyreactivity”.

Turning to “QDQLVESGRGLVQAGGNLRLSCAPSRSIFTTYAMGWYRQARGKERHFVATITSSDSTNYADSVKGRFTISRDNAKNTVYLQMNSLNPEETAVYYCNAGGDRTVSVAWYSADDFWGQGTQVTVSS”, the “polyreactivity (PSR sort gate)” value is reported as “low polyreactivity”.

Regarding “QDQLVESGRGLVQAGGSLRLSCAASGSTFDGKAMGWSRQAPGKERELVATISNSGGRSYYADSVKGRFTISRDNAKNTVYLQMNSLKPEETAVYYCAADHPAFGPGYSFDYWGQGTQVTVSS”, the “polyreactivity (PSR sort gate)” value is “low polyreactivity”.

As to “QDQLVESGVGLVHAGGSLRLSCAATGRIFTYNAMGWYRQAPWKEREVVAAITSSGGSTYYADSVKGRFTISRDNAKNTVYLQMNSLKQEDSAVSYCATVRRGRDYWGQGTQVTVSS”, the “polyreactivity (PSR sort gate)” value was “high polyreactivity”.
